For experiment [1], the target named is GM-CSF receptor on human CD34+ cord blood cells (human (endogenous in CD34+ cord blood cells)) (UniProt P32927). Nature of the experiment: radioligand binding.
For experiment [2], the target named is GM-CSF receptor on TF-1 cells (human (endogenous in TF-1)) (UniProt P32927). Nature of the experiment: radioligand binding.

“DPP4-truncated recombinant human [125I]-GM-CSF (ligand)” registered a KD of the high-affinity site in experiment [1] of 0.734 nM.

“unlabeled DPP4-truncated recombinant human GM-CSF (ligand)” gave a percent by which the IC50 is less than for full-length GM-CSF in experiment [2] of 88%.

Values taken from article PMC3742313.
